From patent US20250051802 come the findings set out here.

For the series, the system named is SluCas9. As to the kind of experiment: cell_activity. The note with it: amplicon sequencing, HEK 293T.

As to “CCAUUCCCUCUUUAGCCAGAG / CCATTCCCTCTTTAGCCAGAGCGGGGT / ACCCCGCTCTGGCTAAAGAGGGAATGG [pBLR194 guide spacer ; pBLR194 target with PAM]”, where the note is “PAM NNGG (CGGGGT)”, the activity turned out to be 65.7%. In the case of “UGCCCUGUGGGGCAAGGUGAA / TGCCCTGTGGGGCAAGGTGAAGTGGAT / ATCCACTTCACCTTGCCCCACAGGGCA [pBLR197 guide spacer ; pBLR197 target with PAM]”, the activity (PAM NNGG (GTGGAT)) stood at 1.9%. On to “GGCCGGCGGCGGACAGUGGAC / GGCCGGCGGCGGACAGTGGACGCGGCGGC / GCCGCCGCGTCCACTGTCCGCCGCCGGCC [pBLR179 guide spacer ; pBLR179 target with PAM]”, for which, under “PAM NNGG (GCGGCGGC)”, the activity turned out to be 72.8%.
